Data reported in the DeepSol protein solubility set.

Experiment: soluble on expression in E. coli; label from the status in PepcDB or PDB records

Row | Sequence | soluble on expression in E. coli
1 | MALIEKNTQFDADKLTANVVGIAADVGKHDSGMHQHHKGQLLYAPQGCMTFALNDSICILPPTKAVWIPPHTPHRAVMTNVVAYRSVYFDCDKFSCPKSIVMIEVNDLLKALINKMALWEWDIEQTKTNATTILFWEEFYQAKQFELTLPLPSDRRLASFRNAMTKDGFIAPD | not soluble
2 | SGMEELEQGLLMQPWAWLQLAENSLLAKVFITKQGYALLVSDLQQVWHEQVDTSVVSQRAKELNKRLTAPPAAFLCHLDNLLRPLLKDAAHPSEATFSCDCVADALILRVRSELSGLPFYWNFHCMLASPSLVSQHLIRPLMGMSLALQCQVRELATLLHMKDLEIQDYQESGATLIRDRLKTEPFEENSFLEQFMIEKLPEACSIGDGKPFVMNLQDLYMAVTTQEVQVGQKHQ | soluble
3 | GHMAGNPPDPNAASTGTNPSPQAAGDISPEMMPETANIKLGYIPIVEAAPLIIAQEKGFFAKYGMTGVEVSKQANWASARDNVTIGSQGGGIDGGQWQMPMPHLITEGIITNGNKVPMYVLAQLITQGNGIAVAPMHEGKGVNLDITKAADYIKGFNKTNGRKFKAAHTFPNVNQDFWIRYWFAAGGVDPDTDIDLLAVPPAETVQGMRNGTMDAFSTGDPWPYRIVTENIGYMAGLTAQIWPYHPEEYLAIRADWVDKNPKATKALLKGIMEAQQWIDDPKNRPEVVQIVSGRNYFNVPTTILESPFKGQYTMGDGQPAIDDFQKGPLYWKDGIGNVSYPYKSHDLWFLTESIRWGFHKNAIPDLDTAQKIIDKVNREDLWREAATEAGFTADIPSSTSRGVETFFDGITFDPANPSAYLQSLAIKKV | soluble
4 | MSMIDIDPPSFQSPRPIAGDDGNRRTVLYGDYTVFSVFQPVFSVSHRRAIGYHASLRAHDSQGNQVPSHDVFTQAARRGDLLELGRLAESLHLGNFHTFDSHDEWLFLSLHPAALMDTVYGDALLANLKALGLPPQRVVLEVPEQAGGETPRFAAIVDGLRKAGFLIALGGFGAKHSNIDRVWHLHPDIVTLDRGILAQASEHSHLERVLPGLVSLLHESGQLVLMGGITTEREALIALECDVDFVQGQYFAGP | not soluble
5 | HATMEPLNCFVDLQSDSCLIRTGSQFQTGDRNAAARVAGLKPEQVTLETTFLGGGFGRRACPASDFVIEAVQVAKTVGKPVMVIRTREDDMRAG | not soluble
6 | MGHHHHHHSHMVLLHVKRGDESQFLLQAPGSTELEELTVQVARVYNGRLKVQRLCSEMEELAEHGIFLPPNMQGLTDDQIEELKLKDEWGEKCVPSGGAVFKKDDIGRRNGQETSGSRCLCYHGDGERCLGPASRRGDDCLPHGVATV | not soluble
7 | MGSDKIHHHHHHAADGEGRGELSPKIKAGDLESKLIVPKNNGLKITGTFLDEISHDIPHQNWGEKEWDLDFQHMKRIGIDTVIMIRSGYRKFMTYPSPYLLKKGCYMPSVDLVDMYLRLAEKYNMKFYFGLYDSGRYWDTGDLSWEIEDNKYVIDEVWKMYGEKYKSFGGWYISGEISRATKGAIDAFRAMGKQCKDISNGLPTFISPWIDGKKAIMGTGKLTREDAVSVQQHEKEWNEIFDGIHEVVDACAFQDGHIDYDELDAFFTVNKKLADKYGMQCWTNAESFDRDMPIRFLPIKFDKLRMKLEAAKRAGYDKAITFEFSHFMSPQSAYLQAGHLYDRYREYFEIK | not soluble
8 | SWMANQFFLLEEYTGSDYQYVGKLHSDQDRGDGSLKYILSGDGAGDLFIINENTGDIQATKRLDREEKPVYILRAQAVNRRTGRPVEPESEFIIKIHDINDNEPIFTKDVYTATVPEMADVGTFVVQVTATDADDPTYGNSAKVVYSILQGQPYFSVESETGIIKTALLNMDRENREQYQVVIQAKDMGGQMGGLSGTTTVNITLTD | soluble
9 | NAKKPTMQLSDSGVDILIGSASYEGGELVLPTSITNQSSQSVIQVEVEVQVFDMSGKQLAKEKVTVWQSIKRMADTYLRPQQAEQGKSIKLAVPQSQQYQFSAKVLEVKTR | not soluble
10 | MSSLMCHGGGLPEVRVARPSGRAERIAALGELCRAGSIVHIGEAARQIGASEITIRRDLSVGAGGLVCLGGYVMRASEGAEGYSLTAAEASEAGAKEALAVRAAALIEPGDTVFLDCGTTTPYLAARVPQNARVTVVTQALNIAETVARLTGVNLILLAGIYHPETASFSSEEAVAMLGRINITKGFFSAAGVHETEGVTCFHFHEVPVKRAALARSRQPYLVCDGSKWGRLRPATYARLEEFEGWIGAPDRAALEHHHHHH | not soluble
11 | MVVSKMNKDAQMRAAINQKLIETGERERLKELLRAKLIECGWKDQLKAHCKEVIKEKGLEHVTVDDLVAEITPKGRALVPDSVKKELLQRIRTFLAQHASL | soluble
12 | MGHHHHHHSHMFKNTFQSGFLSILYSIGSKPLQIWDKKVRNGHIKRITDNDIQSLVLEIEGTNVSTTYITCPADPKKTLGIKLPFLVMIIKNLKKYFTFEVQVLDDKNVRRRFRASNYQSTTRVKPFICTMPMRLDDGWNQIQFNLLDFTRRAYGTNYIETLRVQIHANCRIRRVYFSDRLYSEDELPAEFKLYLPVQNKAKQ | soluble
13 | KSITITTPYFVPSEILLHTLRTTAHRGVEVKLILPKKNDSLMVNWASKSFFETLLKAGVQIHEFNGGLLHTKSVVIDESHCIIGTVNLDMRSFWLNFEVSLIVDDPEFTKQLSWVLDGYLEQSTQVCFDTWRHRSWGNRFTERFFSMFSPLL | not soluble
14 | MAHHHHHHMSPVLVPTACEDWSLNIDDESAKRFWWNNTYSITLWEETLNIEQQAEKITDGDVWSKFIDLQLRCAFKICSICHSPEGNADMKICCYCGNTVHENCSEPAAPEQIMWKPANLAYVEHMRACFQCQAVNYKEPL | not soluble
15 | MGSDKIHHHHHHMDSLVVPGLDTLRRWLDEIGISFFECDSCQALHLPHMQNFDGIFDAKIDLVDNVVLFSALAEVKPSALLALSADLSAINASSLTVKAFIDIQDDNLPKLVVCQSLSIGPGVTMEQFAWFFRQSEEQISMVILEAGANQLLYKGEEEEPAAENVQYHFLH | not soluble
16 | MKKTLATLFLLTCLGSSSAYADNALILQTDFSLKDGAVSAMKGVAFGVDHNLKIFDLTHEIPPYNIWEGAYRLYQTASYWPQGSVFVSVVDPGVGTDRKSIVLKTKNGQYFVSPDNGTLTLVAESLGIESVREIDEKANRLKGSEKSYTFHGRDVYAYTGARLASGAITFEQVGPELPAKVVELSYQKAKATKGEVKGNIPILDIQYGNVWSNISDELLNQAGIKLNDTLCVTISEGSRQKYAGKMPYVASFGDVPEGQPMVYLNSLLNVSVALNMDNFAQKHQVASGADWNIDVKKCDK | not soluble
17 | DVIELTDDSFDKNVLDSEDVWMVEFYAPWCGHCKNLEPEWAAAASEVKEQTKGKVKLAAVDATVNQVLASRYGIRGFPTIKIFQKGESPVDYDGGRTRSDIVSRALDLFSDNAPPPELLE | soluble
18 | MSLFARQLQSLTASGIRTQQVRLASTEVSFHTKPCKLHKLDNGPNTSVTLNREDALKYYRDMQVIRRMESAAGNLYKEKKIRGFCHLYSGQEACAVGMKAAMTEGDAVITAYRCHGWTWLLGATVTEVLAELTGRVAGNVHGKGGSMHMYTKNFYGGNGIVGAQQPLGAGVALAMKYREQKNVCVTLYGDGAANQGQLFEATNMAKLWDLPVLFVCENNGFGMGTTAERSSASTEYYTRGDYVPGIWVDGMDILAVREATKWAKEYCDSGKGPLMMEMATYRYHGHSMSDPGTSYRTREEIQEVRKTRDPITGFKDRIITSSLATEEELKAIDKEVRKEVDEALKIATSDGVLPPEALYADIYHNTPAQEIRGATIDETIVQPFKTSADVLKSIGRA | not soluble
19 | SYELTQPPSVSVAPGQTARISCSGDNIGGTFVSWYQQKPGQAPVLVIYDDNDRPSGIPERFSGSNSGNTATLTISGTQAEDEADYYCGTWDMVTNNVFGGGTKLTVLGQPKAAPSVTLFPPSSEELQANKATLVCLISDFYPGAVTVAWKADSSPVKAGVETTTPSKQSNNKYAASSYLSLTPEQWKSHRSYSCQVTHEGSTVEKTVAPTECS | soluble
20 | MKKFKNILFATQGLPGHSDALEQAIQLAYNNRGQLAGLIAFPAFPADLQRYQEPYEQSYLNTLMETVEACRSQHHIHKDEVPFPLMVEHSEQPAVAIIKSALNHHIDLLIKEAEPMTHSQQGFKALDMTLLRKCPCPVWLHR | not soluble
21 | MGSDKIHHHHHHMEEARIKALISLLDDEDVEVISQVEKELLAQGGSMIPFLEKEWEENFNPIVQKRIEDLVHLLQFVLLEDRLSQWKNKGGTDLMEGLWLICTYQYPDLEFNTIKSAMEQIYYEVWLDMKPDMLPLEQVKLVMNNVLFNKLKFSANTKNFHSPANSMISQVLESKKGNPISLCCIYMMVAQKLKLPVYGVNLPTLFILTYKSDDTQFYISPFHKGLIFTKEDIDNYLLQLNLAPIDLYYQPCNNIDIVARVLRNLIVSFEKLSEMERVDDVKKMLHFLTGEKY | not soluble
22 | MNLLQHIAQSRQQLRKSELKVADHVLNDPASVMHSSMAELAHGVGVSEPTIVRFCRAIGCSGFQDLKLKLAQSLAAGASFGQFSIHESDSVADFSLKIFDTTLHSLMEVREHLDTHALERAIAAIAHAQRVEFYGFGASGAVASDAQHKFFRLLLSAAAYSDPHMQAMSAVTLKPSDVAICISQSGRSKDLLITANLVREAGATLITLCPSQTPLADLATVNLAIDVHEDTDIYTPLTSRIAHLVVIDVLAMGVAMARGPDLVNHLKSVKRSLRSLRLSPKVMKNQEERGEPS | not soluble
23 | PNRLAEAGSRYLRQHSCDPVDWMPWGAEAFEKARRLDKPVFVSVGYSSCHWCHVMQRESFSDPMVAEVLNRAFVMVKVDREERPDVDTLLMRYCAIASGSCGWPLNVLLTPDGKPFYVATYLPKESLVALAVSLERVWRERRAEVLEVAERAGGLLEQHRLAFTPGR | not soluble
24 | METIWIPHLHTALAYMHERFLELFILPDSCPSKKLEELQQKEGN | not soluble
25 | ISEFGSSRMLTTLIYRSQVHPDRPPVDLDALVHRASSKNLPLGITGILLFNGLQFFQVLEGTEEALESLFSEIQSDPRHRDVVELMRDYSAYRRFHGTGMRILDLRLFETDGALEEILRFSTFGVTEPVNDRMFRLLSAFIADGGRYCLPEPLQPSRWMMMPASGTAAPQHLPGQPCQFALQAIVEPAKKRVSSFEALIRSPTGGSPVEMFAAIAAEDRYRFDLESKAYAFALAGQLPLGKHQLAINLLPGSLYHHPDAVGWLMDSLLAAGLRPDQVLIEVTETEVITCFDQFRKVLKALRVAGMKLAIDDFGAGYSGLSLLTRFQPDKIKVDAELVRDIHISGTKQAIVASVVRCCEDLGITVVAEGVETLEEWCWLQSVGIRLFQGFLFSRPCLNGIGEICWPVARQAMDL | soluble
26 | MGSDKIHHHHHHMREKLFWILKKYGVSDHIAKAFLEIPREEFLTKSYPLSYVYEDIVLVSYDDGEEYSTSSQPSLMALFMEWVGLDKGMRVLEIGGGTGYNAAVMSRVVGEKGLVVSVEYSRKICEIAKRNVERLGIENVIFVCGDGYYGVPEFSPYDVIFVTVGVDEVPETWFTQLKEGGRVIVPINLKLSRRQPAFLFKKKDPYLVGNYKLETRFITAGGNLGNLLERNRKLLREFPFNREILLVRSHIFVELVDLLTRRLTEIDGTFYYAGPNGVVEFLDDRMRIYGDAPEIENLLTQWESCGYRSFEYLMLHVGYNAFSHISCSI | not soluble
